Our source for the Kd and dH values is article PMC9481175.

This assay addresses His-tagged pleckstrin homology (PH) domain of AKT (AKT-PHD) (Marsupenaeus japonicus). Put plainly: ITC; CaM (70 uM) titrated into 10 uM AKT-PHD in the cell; 25°C; 0.1 M Tris-HCl pH 8.0; 19 injections; Auto-iTC200. Background: ITC needs no label: the signal is the heat of the interaction.

One may read the Kd as the concentration at which binding is half-saturated. A higher Kd goes with a looser complex.

In turn, “recombinant GST-tagged calmodulin (CaM) (natural protein)” yielded a Kd of 726 nM and a dH of -80.1 kcal/mol.
